From publication PMC7385628, “Molecular determinants for dsDNA translocation by the transcription-repair coupling and evolvability factor Mfd”

B1: 21mer dsDNA (cryo-EM) (dsDNA)
DNA 1: ATAGGATACTTACAGCCATCG
DNA 2: CGATGGCTGTAAGTATCCTAT

What was measured:
[1] = test system: Mfd D7-AAA;H842A (Escherichia coli); assay: fluorescence anisotropy; conditions: 10 nM labeled DNA, 2 mM nucleotide (ADP-AlFx from ADP, 10 mM NaF, 2 mM AlCl3), buffer, pH and temperature not in the material. …
[2] = target: T1, Mfd wild type (Escherichia coli, UniProt P30958 1-1148); assay: fluorescence anisotropy; conditions: 10 nM labeled DNA, 2 mM nucleotide (ADP-AlFx from ADP, 10 mM NaF, 2 mM AlCl3), buffer, pH and temperature not in the material. …
T1 sequence (P30958 whole entry): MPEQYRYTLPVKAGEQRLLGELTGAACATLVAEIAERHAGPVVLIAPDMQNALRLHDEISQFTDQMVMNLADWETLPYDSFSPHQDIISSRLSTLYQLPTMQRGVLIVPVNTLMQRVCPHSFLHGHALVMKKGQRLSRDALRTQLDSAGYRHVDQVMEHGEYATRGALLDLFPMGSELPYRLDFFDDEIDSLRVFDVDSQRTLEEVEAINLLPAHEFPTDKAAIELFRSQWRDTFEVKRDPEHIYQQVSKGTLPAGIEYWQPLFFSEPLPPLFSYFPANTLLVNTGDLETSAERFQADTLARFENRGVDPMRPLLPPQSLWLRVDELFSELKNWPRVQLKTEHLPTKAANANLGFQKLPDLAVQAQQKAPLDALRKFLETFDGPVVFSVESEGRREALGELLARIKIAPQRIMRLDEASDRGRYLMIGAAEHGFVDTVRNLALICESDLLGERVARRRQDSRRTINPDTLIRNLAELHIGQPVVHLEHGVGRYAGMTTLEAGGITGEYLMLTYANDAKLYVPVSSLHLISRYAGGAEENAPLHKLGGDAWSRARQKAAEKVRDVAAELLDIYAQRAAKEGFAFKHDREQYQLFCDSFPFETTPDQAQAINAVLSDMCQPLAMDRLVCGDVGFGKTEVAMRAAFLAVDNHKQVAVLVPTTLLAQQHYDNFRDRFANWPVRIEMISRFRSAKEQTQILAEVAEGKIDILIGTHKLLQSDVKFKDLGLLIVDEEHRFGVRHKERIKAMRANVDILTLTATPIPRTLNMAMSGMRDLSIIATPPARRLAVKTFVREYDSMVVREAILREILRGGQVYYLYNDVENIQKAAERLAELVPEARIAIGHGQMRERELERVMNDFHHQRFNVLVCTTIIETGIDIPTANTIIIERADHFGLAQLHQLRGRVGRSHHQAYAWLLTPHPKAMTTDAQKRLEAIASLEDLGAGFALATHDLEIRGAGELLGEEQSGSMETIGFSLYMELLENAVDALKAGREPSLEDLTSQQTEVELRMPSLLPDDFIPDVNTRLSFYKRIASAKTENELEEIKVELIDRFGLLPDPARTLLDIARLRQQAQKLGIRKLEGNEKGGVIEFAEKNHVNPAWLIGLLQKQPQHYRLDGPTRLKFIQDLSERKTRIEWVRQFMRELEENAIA

[3] = target: T1, Mfd wild type; assay: cryo-EM structure (5.5 A); 2 mM ADP, 10 mM NaF, 1 mM AlCl3, Mg2+; Fluorescence anisotropy, 10 nM labeled DNA, 2 mM nucleotide (ADP-AlFx from ADP, 10 mM NaF, 2 mM AlCl3); buffer, pH and temperature not in the material. Cryo-EM: Mfd in 20 mM Tris-HCl pH 8, 100 mM NaCl, 20 mM MgCl2, 2 mM TCEP; conditions: protein: recombinant; tags: N-terminal His tag, cleaved with PreScission; blunt

| Molecule | Kd [1] [nM] | Kd ([1]; 2 mM ATPgS) [nM] | Kd ([2]; 2 mM ADP-AlFx) [nM] | Kd ([2]; 2 mM ATPgS) [nM] | binding result [3] |
| --- | --- | --- | --- | --- | --- |
| HEX-labeled 40mer dsDNA | 127 | 927 | 24 | 151 |  |
| B1 |  |  |  |  | binds |
